Assays:
[1] = target: forty-residue β-amyloid peptide (human Aβ), aged (aggregated) unless said otherwise (human) (UniProt P05067); assay: cell-based or functional assay
[2] = target: T1, BBP1 intracellular loop (pOZ339), Gal4 DNA-binding domain fusion (yeast; human, UniProt P04386 1-147); assay: yeast 2-hybrid, two independently derived clones of each strain against vector
T1 construct: also called BBP1 intracellular region; predicted intracellular domain of BBP1
Source text: BBP1ΔC was made by using the pACT2-specific oligo #6 with antisense oligo #9 (5′-CTCGAG TCAAGATATGGGCTTGAAAAAAC). After TA cloning, isolation of the EcoRI-XhoI fragment and cloning into pACT2, the resultant plasmid, pEK219, expressed BBP1 from residue 68 to 175. Sequences encoding the BBP1 intracellular loop were amplified using oligonucleotides #10 (5′-CCTTCC ATGGAAGTGGCAGTCGCATTGTCT) plus #11 (5′-[…] TCAAAACCCTACAGTGCAAAAC). This product, containing BBP1 codons 185 to 217, was digested with NcoI+XhoI and cloned into pAS2 cleaved with NcoI +SalI to generate pOZ339. Construction of all Gα protein expression plasmids utilized the BamHI site near the center of each rat cDNA sequence as the site of fusion in pACT2 (Kang, Y. -S., Kane, J., Kurjan, J., Stadel, J., and Tipper, D. (1990) Mol Cell Biol 10, 2582-2590). Sense primers annealed to sequences 5′ of the BamHI site; antisense primers annealed to sequences 3′ of the stop codon and included a SalI restriction site. Primers were: […]
Structural analysis of BBP1 indicated it contained a structural motif known to be a Gα protein activating sequence in the related G protein-coupled receptors. […] The predicted intracellular domain of BBP1 was expressed as a Gal4 DNA-binding domain with portions of rat Gαs, Gαo, or Gαl2 expressed as Gal4 activation domain fusion proteins. […]

[3] = target: T2, human BAP42 fused to the Gal4 DNA-binding domain (BAP^BD; expression plasmid pEK162) (yeast; human, UniProt P04386 1-147; P05067 672-713); assay: yeast 2-hybrid
T2 construct: The screening strain also expressed free BAP42 (pEK149); also called BAP fusion protein; human BAP fusion protein
Protocol: These fusion proteins were assayed with the BAP fusion protein and responses compared to those of strains expressing the larger BBP1Δtm protein. The BBP1ΔC protein induced a weak Y2H response (compare BBP1ΔC to vector, FIG. 4), but the BBP1ΔN protein, containing the first tm domain and adjacent amino-proximal sequences produced a response only slightly weaker than that observed with BBP1Δtm.
Bioassays: Strains were grown overnight in 2 ml SC medium lacking leucine and tryptophan to a density of approximately 7×10⁷ cells per ml. Cells were counted and 10-fold serial dilutions made from […] in sterile water. These samples were spotted in 5 μl aliquots on SC medium lacking leucine, tryptophan and histidine and containing 25 mM 3-amino-triazole. Plates were incubated at 30° C. for 2 to 3 days. Positive protein/protein interactions were identified by increased prototrophic growth compared to control strains expressing the Gal4 DNA-binding domain fusion protein plus an irrelevant transcriptional activation domain fusion protein (or simply containing the pACT vector without inserted sequences). This assay method was highly reproducible and provided for the detection of subtle inductions of growth mediated by the specific interaction between target proteins. […]

BBP1 expressed in transfected cells from the BBP1 expression plasmid pBBP (pOZ363) (receptor)
% apoptotic nuclei, Ntera2 neurons, 10 µM aged Aβ for 48 hrs [1]: 22.3%
% apoptotic nuclei, Ntera2 stem cells, 10 µM aged Aβ for 48 hrs [1]: 12.3%
cell viability after aggregated Aβ peptide for 48 hrs (loss of total cells) (% of total cells) [1]: 22

B1: rat Gαs C-terminal region (pOZ345), Gal4 activation domain fusion (other, UniProt P63095 235-394, looked up, not shown: large carriers)
chain: IQCFNDVTAIIFVVASSSYNMVIREDNQTNRLQEALNLFKSIWNNRWLRTISVILFLNKQDLLAEKVLAGKSKIEDYFPEFARYTTPEDATPEPGEDPRVTRAKYFIRDEFLRISTASGDGRHYCYPHFTCAVDTENIRRVFNDCRDIIQRMHLRQYELL
notes: range 235-394; also called Gas
binding result [2]: binds

B2: rat Gαi2 C-terminal region (pOZ348), Gal4 activation domain fusion (other, UniProt P04897 213-355, looked up, not shown: large carriers)
chain: IHCFEGVTAIIFCVALSAYDLVLAEDEEMNRMHESMKLFDSICNNKWFTDTSIILFLNKKDLFEEKITQSPLTICFPEYTGANKYDEAASYIQSKFEDLNKRKDTKEIYTHFTCATDTKNVQFVFDAVTDVIIKNNLKDCGLF
notes: range 213-355; also called Gai2
binding result [2]: binds

B3: BBP1ΔN (pEK216), Gal4 activation domain fusion (other, not shown: small tags and cut ends)
chain: PKINDATQEPVNCTNYTAHVSCFPAPNITCKDSSGNETHFTGNEVGFFKPISCRNVNGYSYKVAVALSLFLGWLGADRF
notes: Encodes the first tm domain plus the preceding 52 amino acids; also called BBP1?N (so in the source); ?N construct
binding result [3]: binds
